Experiment [1] addresses T1, cynomolgus 5T4 on cells (HEK-cyno-5T4, transfected HEK293 and CHO cells) (cynomolgus monkey, UniProt Q4R8Y9 35-420).
T1 construct: also called HEK-cyno-5T4 cells
T1 sequence: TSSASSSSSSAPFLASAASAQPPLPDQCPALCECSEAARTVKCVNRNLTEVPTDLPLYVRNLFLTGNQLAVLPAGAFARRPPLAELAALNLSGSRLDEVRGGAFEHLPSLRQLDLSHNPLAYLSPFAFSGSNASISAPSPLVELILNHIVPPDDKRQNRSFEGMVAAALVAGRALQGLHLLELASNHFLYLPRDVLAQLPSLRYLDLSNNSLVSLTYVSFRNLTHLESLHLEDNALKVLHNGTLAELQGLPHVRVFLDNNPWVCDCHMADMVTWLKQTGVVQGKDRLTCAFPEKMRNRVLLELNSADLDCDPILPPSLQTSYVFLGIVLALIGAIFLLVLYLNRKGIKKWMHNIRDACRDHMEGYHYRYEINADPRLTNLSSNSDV
The experiment is described as follows: cell binding on transfected HEK293 and CHO cells.

The target in experiment [2] is T2, mouse 5T4 on transfected HEK293 and CHO cells (mouse, UniProt Q9Z0L0 32-426).
T2 sequence: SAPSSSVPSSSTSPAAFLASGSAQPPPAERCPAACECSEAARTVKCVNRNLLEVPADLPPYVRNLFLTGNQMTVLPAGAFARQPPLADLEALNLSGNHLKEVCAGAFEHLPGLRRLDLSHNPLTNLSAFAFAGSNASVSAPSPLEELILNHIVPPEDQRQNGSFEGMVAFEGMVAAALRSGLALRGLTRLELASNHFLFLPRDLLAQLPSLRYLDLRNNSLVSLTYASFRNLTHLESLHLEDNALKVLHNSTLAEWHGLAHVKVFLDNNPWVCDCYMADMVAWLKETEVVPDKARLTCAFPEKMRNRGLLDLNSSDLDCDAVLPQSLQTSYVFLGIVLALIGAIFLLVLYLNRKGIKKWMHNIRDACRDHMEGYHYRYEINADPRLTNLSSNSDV
Nature of the experiment: cell binding on transfected HEK293 and CHO cells.

We go through two molecules from patent publication US20250295803A1, “5T4 ANTIBODY-DRUG CONJUGATES AND USES THEREOF” (EXELIXIS, INC., priority 2022, published 2025).

Numbering of substitutions follows the chain as printed.

B1: mAbA17 (antibody, V domains shown)
VH: EVQLVESGGGLVQPGGSLRLSCAASGFTFSRYWIHWVRQAPGKGLEWVAAIFPYSGSTLYADSVKGRFTISADTSKNTAYLQMNSLRAEDTAVYYCARSPSRSILPSGLDYWGQGTLVTVSS
VL: DIQMTQSPSSLSASVGDRVTITCRASQSVSSAVAWYQQKPGKAPKLLIYSASSLYSGVPSRFSGSRSGTDFTLTISSLQPEDFATYYCQQGDGSPYTFGQGTKVEIKR
notes: also called Antibody mAbA17
For the molecule B1, the binding result in experiment [1] is “binds”.

B2: mAbA4 (antibody, V domains shown)
VH: EVQLVESGGGLVQPGGSLRLSCAASGFTFSRYYIHWVRQAPGKGLEWVAFISPGGSYTYYADSVKGRFTISADTSKNTAYLQMNSLRAEDTAVYYCAREYYSMGVLDYWGQGTLVTVSS
VL: B1 VL with G91A, D92Y, G93E
notes: also called Antibody mAbA4
For B2, the binding result in experiment [2] was “no binding”.
